{"source": "paper PMC12578645", "target": "gB-Ecto.H516P (HSV-1 glycoprotein B ectodomain with H516P and an appended foldon; postfusion) (HSV-1 KOS strain) (UniProt P06437)", "test": "cryo-EM structure"}
{"substance": "gB-Ecto.H516P (HSV-1 glycoprotein B ectodomain with H516P and an appended foldon; postfusion) (from UniProt P06437 31-728) (domain or fragment)", "values": [{"measurement": "stoichiometry N", "result": 3}]}
